Data published in patent US20250064951A1, “DENDRITIC POLYELECTROLYTE ZWITTERIONS, JANUS-TYPE CONJUGATE COMPRISING SAME AND USES THEREOF” (ArtProBio Co., Ltd., priority 2023, published 2025).
Ends that are not written are not given here.

Assays:
[1] = test system: HeLa cells; test: Cytotoxicity, WST-8 assay in HeLa cells; assay type: cell-based; conditions: 0, 2, 4, 8, 16, 32, 64 and 128 μM, 4 hours
Description: Since DPZ contains both polyelectrolytes and zwitterions in a single molecule, it is expected to have non-fouling property and low toxicity, while also having advantageous intracellular delivery efficiency due to its interaction with the cell membrane. Cytotoxicity was analyzed first. HeLa cells were subcultured in DMEM supplemented with 10% FBS (fetal bovine serum), dispensed into each well at 1×10^4 cells/well, and cultured at 37° C. for 24 hours. The cells were treated with the samples (Examples 1-1 to 1-6 or Comparative Examples 3-1 and 3-2) at various concentrations and then cultured at 37° C. for 4 hours. WST-8 solution was added to the cultured cells, and absorbance was measured at 450 nm with a microplate reader (Perkin-Elmer, USA) 4 hours later.
Cytotoxicity was analyzed using HeLa cells. Specifically, HeLa cells were subcultured in DMEM supplemented with 10% FBS (fetal bovine serum), dispensed into each well at 1×10^4 cells/well, and cultured at 37° C. for 24 hours. The cells were treated with the samples (Examples 3-1 to 3-6) at various concentrations and then cultured at 37° C. for 4 hours. WST-8 solution was added to the cultured cells, and absorbance was measured at 450 nm with a microplate reader (Perkin-Elmer, USA) 4 hours later.

[2] = DLS size, size distribution and zeta potential; assay type: physicochemical; conditions: for Diameter (nm) in DW / Diameter (nm) in PBS: DLS
[3] = test system: HCT116 cells; test: Cytotoxicity, WST-8 assay in HCT116 cells; assay type: cell-based, human; conditions: 0, 1.25, 2.5, 5, 10 μM, 4 hours
Description: The cytotoxicity of the G2 Janus-type dendritic polyelectrolyte zwitterions according to the present disclosure (JDPZ, (+M)2(−M)2 conjugate_1) was analyzed using HCT116 cells (human colon cancer cells). Specifically, HCT116 cells were subcultured in DMEM supplemented with 10% FBS (fetal bovine serum), dispensed into each well at 1×10^4 cells/well, and cultured at 37° C. for 24 hours. The cells were treated with the samples (Example 5-1 and Comparative Examples 1-1 to 1-3) at various concentrations (0, 1.25, 2.5, 5, 10 μM), respectively, and incubated at 37° C. for 4 hours. WST-8 solution was added to the cultured cells, and absorbance was measured at 450 nm with a microplate reader (Perkin-Elmer, USA) 4 hours later.

[4] = test system: HCT116 cells; test: Intracellular delivery efficiency in HCT116 cells by flow cytometry; assay type: cell-based, human; conditions: summary statement, b342
Description: To confirm the intracellular delivery efficiency, HCT116 cells were subcultured in DMEM supplemented with 10% FBS (fetal bovine serum), dispensed into each well at 1-3×10^4 cells/well, and cultured at 37° C. for 24 hours. The cells were treated with the (+6)2(−6)2 conjugate_FAM prepared in Example 6-2 at a concentration of 10 μM and incubated at 37° C. for 4 hours. Afterwards, the cells were washed with Dulbecco's phosphate-buffered saline (DPBS), trypsinized, resuspended in DPBS supplemented with 10% cell dissociation buffer (GIBCO) and 1% FBS, and then analyzed using a flow cytometer (BD LSR II SORT flow cytometer, BD Bioscience, USA) for analysis of intracellular fluorescence.

[5] = test system: yeast rRNA; test: EMSA of non-fouling property for rRNA; assay type: binding; conditions: 200 ng yeast rRNA; various peptide/RNA (w/w) ratios; room temperature 1 hour
Description: It was confirmed through EMSA (electrophoretic mobility shift assay) that the dendrimer structure of the present disclosure has non-fouling property for various genetic materials present in the body when administered in vivo. 200 ng of yeast rRNA (ribosomal RNA) was prepared as a model genetic material and mixed with the Janus-type dendritic polyelectrolyte zwitterion of Example 5-4 (JDPZ ((+6)2(−6)2 conjugate_1)) at various concentration ratios. The mixing ratio was peptide/RNA ratio, wherein the peptide/RNA ratio was peptide/RNA (w/w). After reacting the mixture at room temperature for 1 hour, electrophoresis was performed on a 2% agarose gel at 90 V for 100 minutes. For visualization, the bands were stained with SYBR Gold nucleic acid gel stain (Invitrogen, USA).
The Janus-type dendrimer structure of Comparative Example 1-2 ((+3)2(Ø3)2 conjugate) was used as a control group instead of the JDPZ of Example 5-4 ((+6)2(−6)2 conjugate_1).

[6] = molecular target: BSA (Bos taurus, UniProt P02769); test: EMSA of non-fouling property for proteins (BSA); assay type: binding
Chain of BSA (P02769 25-607): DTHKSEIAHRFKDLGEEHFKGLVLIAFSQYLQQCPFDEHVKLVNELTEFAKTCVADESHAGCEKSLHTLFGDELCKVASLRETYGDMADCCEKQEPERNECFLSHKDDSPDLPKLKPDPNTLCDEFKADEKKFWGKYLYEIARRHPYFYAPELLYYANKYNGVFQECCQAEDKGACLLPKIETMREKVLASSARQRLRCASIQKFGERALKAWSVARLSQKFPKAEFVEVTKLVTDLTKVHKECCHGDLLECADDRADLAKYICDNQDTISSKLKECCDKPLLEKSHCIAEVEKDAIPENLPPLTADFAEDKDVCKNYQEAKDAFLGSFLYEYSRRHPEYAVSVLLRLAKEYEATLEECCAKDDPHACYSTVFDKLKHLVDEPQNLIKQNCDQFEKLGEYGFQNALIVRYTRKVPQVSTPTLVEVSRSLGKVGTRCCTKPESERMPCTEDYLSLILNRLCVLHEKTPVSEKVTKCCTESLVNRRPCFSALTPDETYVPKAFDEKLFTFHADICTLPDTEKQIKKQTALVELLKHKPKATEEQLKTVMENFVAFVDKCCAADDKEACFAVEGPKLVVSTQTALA
Description: The mixing ratio was R/B ratio, wherein the R/B ratio was arginine/BSA ratio. […] For visualization, the bands were stained with Coomassie brilliant blue R-250.
The mixing ratio was peptide/BSA ratio, wherein the peptide/BSA ratio was peptide/BSA (w/w). […] For visualization, the bands were stained with Coomassie brilliant blue R-250.

[7] = 1 μg BSA, various peptide/BSA (w/w) ratios, room temperature 1 hour

Compound	Net charge [2]	Zeta potential (mV) [2]	Diameter (nm) in DW [2]	Diameter (nm) in PBS [2]	cytotoxicity [3]	further results
Comparative Example 3-1: peptide in which cationic and anionic amino acids are linked alternately (Ac-ERERERERERERERERERERERERERER)	–	–	–	–	–	cytotoxicity [1]: do not cause toxicity in the cells
CC(=O)NCCCCCCCCCCCC(=O)NCCCCC(NC(=O)CCCCCCCCCCCNC(C)=O)C(=O)NCCCCC(NC(=O)C(CCCCNC(=O)CCCCCCCCCCCNC(C)=O)NC(=O)CCCCCCCCCCCNC(C)=O)C(=O)NCCCCC(NC(=O)C(CCCCNC(=O)C(CCCCNC(=O)[C@H](CCC(=O)O)NC(=O)[C@H](CCC(=O)O)NC(=O)C(CCC(=O)O)NC(C)=O)NC(=O)[C@H](CCCCC(=N)N)NC(=O)[C@H](CCCNC(=N)N)NC(=O)[C@H](CCCNC(=N)N)NC(C)=O)NC(=O)C(CCCCNC(=O)[C@H](CCCNC(=N)N)NC(=O)[C@H](CCCNC(=N)N)NC(=O)[C@H](CCCNC(=N)N)NC(C)=O)NC(=O)[C@H](CCC(=O)O)NC(=O)[C@H](CCC(=O)O)NC(=O)[C@H](CCC(=O)O)NC(C)=O)C(N)=O (stereo partly drawn) [Example 5-1]	0	+42.3 mV	109.8 nm	75.4 nm	does not exhibit cytotoxicity	–
Ac-EEEEEEEEEEEERRRRRRRRRRRR-NH2 [Comparative Example 3-2]	–	–	–	–	–	cytotoxicity [1]: do not cause toxicity in the cells
CC(=O)NCCCCCCCCCCCC(=O)NCCCCC(NC(=O)CCCCCCCCCCCNC(C)=O)C(=O)NCCCCC(NC(=O)C(CCCCNC(=O)CCCCCCCCCCCNC(C)=O)NC(=O)CCCCCCCCCCCNC(C)=O)C(=O)NCCCCC(NC(=O)C(CCCCNC(=O)C(CCCCNC(=O)C(CCCNC(=N)N)NC(=O)C(CCCNC(=N)N)NC(=O)C(CCCNC(=N)N)NC(C)=O)NC(=O)C(CCCNC(=N)N)NC(=O)C(CCCNC(=N)N)NC(=O)C(CCCNC(=N)N)NC(C)=O)NC(=O)C(CCCCNC(=O)C(CCCNC(=N)N)NC(=O)C(CCCNC(=N)N)NC(=O)C(CCCNC(=N)N)NC(C)=O)CC(=O)C(CCCNC(=N)N)NC(=O)C(CCCNC(=N)N)NC(=O)C(CCCNC(=N)N)NC(C)=O)C(N)=O (stereo not drawn) [Comparative Example 1-1]	–	–	–	–	very high toxicity	cellular delivery efficiency [4]: high cellular delivery efficiency
CC(=O)NCCCCCCCCCCCC(=O)NCCCCC(NC(=O)CCCCCCCCCCCNC(C)=O)C(=O)NCCCCC(NC(=O)C(CCCCNC(=O)CCCCCCCCCCCNC(C)=O)NC(=O)CCCCCCCCCCCNC(C)=O)C(=O)NCCCCC(NC(=O)C(CCCCNC(=O)C(CCCCNC(=O)[C@H](CCC(=O)O)NC(=O)[C@H](CCC(=O)O)NC(=O)[C@H](CCC(=O)O)NC(=O)[C@H](CCC(=O)O)NC(=O)[C@H](CCC(=O)O)NC(=O)[C@H](CCC(=O)O)NC(C)=O)NC(=O)[C@H](CCCCC(=N)N)NC(=O)[C@H](CCCNC(=N)N)NC(=O)[C@H](CCCNC(=N)N)NC(=O)[C@H](CCCNC(=N)N)NC(=O)[C@H](CCCNC(=N)N)NC(=O)[C@H](CCCNC(=N)N)NC(C)=O)NC(=O)C(CCCCNC(=O)[C@H](CCCNC(=N)N)NC(=O)[C@H](CCCNC(=N)N)NC(=O)[C@H](CCCNC(=N)N)NC(=O)[C@H](CCCNC(=N)N)NC(=O)[C@H](CCCNC(=N)N)NC(=O)[C@H](CCCNC(=N)N)NC(C)=O)NC(=O)[C@H](CCC(=O)O)NC(=O)[C@H](CCC(=O)O)NC(=O)[C@H](CCC(=O)O)NC(=O)[C@H](CCC(=O)O)NC(=O)[C@H](CCC(=O)O)NC(=O)[C@H](CCC(=O)O)NC(C)=O)C(N)=O (stereo partly drawn) [Example 5-4]	0	+35.2 mV	649.0 nm	128.9 nm	–	interaction with rRNA (non-fouling property), EMSA [5]: forms interaction only under high-concentration conditions in which rRNA is present in an amount exceeding 10 times; binding to BSA (non-fouling property), EMSA [6, 7]: hardly binds to BSA
CC(=O)NCCCCCCCCCCCC(=O)NCCCCC(NC(=O)CCCCCCCCCCCNC(C)=O)C(=O)NCCCCC(NC(=O)C(CCCCNC(=O)CCCCCCCCCCCNC(C)=O)NC(=O)CCCCCCCCCCCNC(C)=O)C(=O)NCCCCC(NC(=O)C(CCCCNC(=O)C(CCCCNC(=O)C(CO)NC(=O)C(CO)NC(=O)C(CO)NC(C)=O)NC(=O)C(CCCNC(=N)N)NC(=O)C(CCCNC(=N)N)NC(=O)C(CCCNC(=N)N)NC(C)=O)NC(=O)C(CCCCNC(=O)C(CO)NC(=O)C(CO)NC(=O)C(CO)NC(C)=O)NC(=O)C(CCCNC(=N)N)NC(=O)C(NCCNC(=N)N)NC(=O)C(CCCNC(=N)N)NC(C)=O)C(N)=O (stereo not drawn) [Comparative Example 1-2, reference compound]	+6	+52.8 mV	742.3 nm	5,688.2 nm	very high toxicity	interaction with rRNA (non-fouling property), EMSA [5]: forms a non-specific interaction with rRNA even under the low-concentration rRNA condition; cellular delivery efficiency [4]: high cellular delivery efficiency; binding to BSA (non-fouling property), EMSA [6, 7]: binds easily to BSA
linear peptide R12: linear peptide with 12 arginines, same number of cationic residues as Example 1-6 (RRRRRRRRRRRR; not fully specified (some residues))	–	–	–	–	–	binding to BSA (non-fouling property), EMSA ([6]; 0.5 μg BSA, various R/B (arginine/BSA) ratios, room temperature 12 hours): interacts with BSA and induces EMS
